The labels stand for the following.
B1: B06 (antibody, V domains shown)
VH: not shown
VL: DIQMTQSPSSLSASVGDRVTITCRASQGISSYLAWYQQKPGKAPKLLIYAASTLQSGVPDRFSGSGSGTDFTLTISSLQAEDVAVYYCQQYLSVPYTFGQGTKVEIK
notes: Fab phage clone converted into full-length IgG; also called 67A3-40
B2: B07 (antibody, V domains shown)
VH: EVQLLESGGGLVQPGGSLRLSCAASGFTFSSYWMSWVRQAPGKGLEWVANIKQDGSEKYYVDSVKGRFTISRDNAKNSLYLQMNSLRAEDTAVYYCARVCGYDDAFDIWGQGTMVTVSA
VL: NIQMTHSPSTLSASVGDRVTISCRASQSISTWLAWYQQKPGKAPKLLIYKASSLESGVPSRFSGSGSGTDFTLTISSLQPEDFATYYCQQSYSIPLTFGGGTKVEIK
notes: Fab phage clone converted into full-length IgG; also called 67C1-5
B3: B10 (antibody, V domains shown)
VH: QVQLVQSGGGLVQPGGSLRLSCAASGFTFSSYWMSWVRQAPGKGLEWVANIKQDGSEKYYVDSVKGRFTISRDNAKNSLFLQMNSLGAEDTAMYYCARATVKYGGDDAFDIWGQGTMVTVSA
VL: B2 VL with M4L, H6Q, S22T, T31D, K45N, Y92F, I94T, L96F, G100P, E105D
notes: Fab phage clone converted into full-length IgG; also called 67C3-14
B4: B12 (antibody, V domains shown)
VH: B2 VH with E1Q, C100A, G101L, Y102W
VL: B2 VL with M4L, H6Q, T20I, S22T, Q27R, S28G, T31S, K45N, Y49S, Y92S
notes: Fab phage clone converted into full-length IgG; also called 67C1-9
B5: B16 (antibody, V domains shown)
VH: B2 VH with E1Q, E6D, C100A, G101L, Y102W
VL: B2 VL with N1D, H6Q, T10S, S22T, T31S, D70E, E81D, Q90H, Y92N, I94L
notes: Fab phage clone converted into full-length IgG; also called 67C3-10
B6: B04 (antibody, V domains shown)
VH: B2 VH with E1Q, E6D, V99T, C100M, G101L, Y102W
VL: B2 VL with N1D, M4L, H6Q, S22T, Q27E, T31S, A43V, I94T, L96P, G100Q
notes: Fab phage clone converted into full-length IgG; also called 67A3-15
B7: B06-01 (antibody, V domains shown)
VH: not shown
VL: B1 VL
B8: B06-03 (antibody, V domains shown)
VH: not shown
VL: B1 VL
B9: B06-02 (antibody, V domains shown)
VH: not shown
VL: B1 VL
B10: B12-03 (antibody, V domains shown)
VH: B2 VH with E1Q, D54E, S63A, C100A, G101L, Y102W, A119S
VL: B2 VL with N1D, H6Q, T20I, S22T, Q27R, S28G, T31S, K45N, Y49S, Y92S
B11: B16-01 (antibody, V domains shown)
VH: B2 VH with E1Q, E6D, C100A, G101L, Y102W, A119S
VL: B2 VL with N1D, H6Q, T10S, S22T, T31S, D70E, E81D, Q90H, Y92N, I94L
B12: B12-02 (antibody, V domains shown)
VH: B2 VH with E1Q, D54E, C100A, G101L, Y102W, A119S
VL: B2 VL with N1D, H6Q, T20I, S22T, Q27R, S28G, T31S, K45N, Y49S, Y92S
B13: B02 (antibody, V domains shown)
VH: QVQLLESGGGLVKPGGSLRLSCAASGFTFSTYIINWVRQAPGKGLEWVSSVAASGDYAYYANSVKGRFTISRDNSKNTLYLQMNSLRAEDTAVYYCARDRSSGYYLSPNDAFDIWGQGTMVTVSA
VL: NIQLTQSPSSLSASLGDRVTITCRASQTISRYLNWYQQKPGKAPELLIYATSSLQSGVPSRFSGSGSGTDFTLTISSLQPEDFATYYCQQSYSTPTTFGGGTKVEIK
notes: Fab phage clone converted into full-length IgG; also called 67A2-20
B14: B01 (antibody, V domains shown)
VH: EVQLLESGGGLVQPGGSLRLSCAASGFTLSSHWLAWVRQAPGKGLEWVASIHQDASLEFYVDSVEGRFTISRDNSKRSLFLQMNNLRVEDTAVYYCARGDNQFDNWGQGTLVTVSA
VL: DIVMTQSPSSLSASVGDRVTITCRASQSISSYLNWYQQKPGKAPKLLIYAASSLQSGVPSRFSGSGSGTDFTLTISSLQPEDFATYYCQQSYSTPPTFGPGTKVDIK
notes: Fab phage clone converted into full-length IgG; also called 67A3-5
B15: B11 (antibody, V domains shown)
VH: EVQLLESGAEVKKPGSSVKVSCKASGGTFSSYAISWVRQAPGQGLEWMGGIIPIFGTANYAQKFQGRVTITADESTSTAYMELSSLRSEDTAVYYCARRTDSYGYSDAFDIWGQGTMVTVSA
VL: not shown
notes: Fab phage clone converted into full-length IgG; also called 67C3-17
B16: B14 (antibody, V domains shown)
VH: B2 VH with L11E, G16R, T28S, Q53E, C100V, G101R, Y102F, D103N
VL: NIQLTQSPSSVSASVGDRVTITCRASQGISSWLAWYQQKPGKAPKLLIYAASSLQSGVPSRFSGSGSGTDFTLTISSLQPEDFATYYCQQANSFPFTFGPGTKVDIK
notes: Fab phage clone converted into full-length IgG; also called 67C2-19
B17: B09 (antibody, V domains shown)
VH: B2 VH with V99E, C100D, G101F, Y102W, D103S, D104G, A105Y, F106Q, I108V
VL: not shown
notes: Fab phage clone converted into full-length IgG; also called 67C2-9
B18: B13 (antibody, V domains shown)
VH: B3 VH with Q1E, V5L, Q6E, F80Y, G87R, M93V, Y95F, A99S, G105A, T116A
VL: B16 VL with L4M, S10T, V11L, G28S, A50K, A91S, N92Y, F94T
notes: Fab phage clone converted into full-length IgG; also called 67C1-10
B19: B05 (antibody, V domains shown)
VH: EVQLVETGRGLVQPGRSLRLSCAASGFTFSSYWMSWVRQAPGKGLEWVANIKQDGSEKYYVDSVKGRFTISRDNAKNSLYLQMNSLRAEDTAVYYCARGGYYGDDDAFDIWGQGTMVTVSA
VL: B2 VL with H6Q, S22T, T31S, D70E, S91T, I94L, G100Q, K103R, E105G
notes: Fab phage clone converted into full-length IgG; also called 67A3-21
B20: B03 (antibody, V domains shown)
VH: B2 VH with T28S, Q53E, C100V, G101R, Y102F, D103N
VL: DIQLTQSPSTLSASVGDRVTITCRASQSIDTWLAWYQQKPGKAPKLLIHNASTLKSGVSSRFSGSGSGTDFTLTISSLQPEDFATYYCQQSYSTPLTFGGGTKVEIK
notes: Fab phage clone converted into full-length IgG; also called 67A3-14
B21: B17 (antibody, V domains shown)
VH: EVQLLESGGGLVQPGGSLRLSCAASGFTFSSNAMSWVRQAPGKGLEWVSAVGGGGVNTYYADSVKGRFTISRDNSKNTLYLQMNSLRAEDTAVYYCAKGEKGYSNSCIDYWGQGTLVTVSA
VL: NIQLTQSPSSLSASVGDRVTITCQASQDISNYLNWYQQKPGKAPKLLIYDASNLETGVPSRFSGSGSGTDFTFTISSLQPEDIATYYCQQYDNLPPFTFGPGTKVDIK
notes: Fab phage clone converted into full-length IgG; also called 67C2-23
B22: B08 (antibody, V domains shown)
VH: EVQLLESGGGLVQPGGSLRLSCVGSGFTFSDHYMDWVRQAPGKGLEWVSSISSSSSYIYYADSVKGRFTISRDNAKNSLYLQMNSLRAEDTAVYYCARGRVGATNRFGMDVWGQGTMVTVSA
VL: DIQMIQSPSSVSASVGDRVTITCRASESISRWLAWYQQKPGKAPKLLIYAASNLESGVPSRFSGSGSGTEFTLTISSLQPEDFATYYCQQAESFPSFGQGTRLEIK
notes: Fab phage clone converted into full-length IgG; also called 67C2-1

The source of these data is patent US20210309747A1 (I MAB BIOPHARMA US, published 2021).

Where a chain is given by its changes, count along the chain named.

For the first test, the target named is T1, human PD-L1 on Raji cells (human, UniProt Q9NZQ7 19-290). Put plainly: cell-based or functional assay.
T1 sequence (Q9NZQ7 19-290): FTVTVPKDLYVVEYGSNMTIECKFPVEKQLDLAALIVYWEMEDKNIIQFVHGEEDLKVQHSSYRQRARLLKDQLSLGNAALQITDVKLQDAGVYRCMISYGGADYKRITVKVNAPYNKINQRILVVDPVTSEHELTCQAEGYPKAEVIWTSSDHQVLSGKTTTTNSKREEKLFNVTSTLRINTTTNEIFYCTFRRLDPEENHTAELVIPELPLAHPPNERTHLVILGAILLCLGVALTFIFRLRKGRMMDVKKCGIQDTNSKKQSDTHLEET
Regarding B1, the “EC50 (NF-AT-luciferase RLU)” value was 516 pM.
Same read-out and setting: the value for B2 was 1020 pM.
Same read-out and setting: then B3, with 2220 pM; and B4, with 439 pM; and B5, with 1050 pM.
Still for that read-out and setting: the value for B6 was 2340 pM.

The target of a further test is T1, human PD-L1 on Raji cells. Nature of the test: cell-based or functional assay. This is another data set of the same source.
With B7, the “EC50 (NF-AT-luciferase RLU)” value amounted to 383 pM.
Still for that read-out and setting: the value for B8 was 907 pM; that for B9 was 970 pM.
Still for that read-out and setting: the value for B10 was 517 pM; that for B11 was 611 pM; that for B4 was 545 pM.
As for B12, the “EC50 (NF-AT-luciferase RLU)” value turned out to be 497 pM.

Another test deals with T2, recombinant human PD-L1 (Sino Biological, Cat#: 10084-H08H) (human, UniProt Q9NZQ7 19-238).
T2 construct: Bought protein; also called human PD-L1 protein
T2 sequence (Q9NZQ7 19-238 limits assumed): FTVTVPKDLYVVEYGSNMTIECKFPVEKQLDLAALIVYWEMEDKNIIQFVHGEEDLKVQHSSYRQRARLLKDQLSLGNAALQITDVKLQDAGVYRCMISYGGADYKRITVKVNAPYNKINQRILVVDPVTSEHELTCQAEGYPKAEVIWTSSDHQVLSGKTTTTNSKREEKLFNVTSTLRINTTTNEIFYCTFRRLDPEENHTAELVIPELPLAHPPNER
Put plainly: ELISA, plate coated with human PD-L1 at 1 ug/ml, detection with goat anti-human IgG-HRP, OD450. As for the experimental part: To evaluate antigen binding activity, the antibodies were subjected to ELISA test. Briefly, microtiter plates were coated with human PD-L1 protein at 1 μg/ml in PBS, 100 μl/well at 4° C. overnight, then blocked with 100 μl/well of 1% BSA. 4-fold dilutions of humanized antibodies starting from 10 μg/ml were added to each well and incubated for 1-2 hours at RT. The plates were washed with PBS/Tween and then incubate with goat-anti-human IgG antibody conjugated with Horse Radish Peroxidase (HRP) for 1 hour at RT. After washing, the plates were developed with TMB substrate and analyzed by spectrophotometer at OD 450 nm.
As usually defined, the EC50 is the midpoint of the concentration-response curve. Regarding B13, the EC50 worked out at 15500 pM.
Still for that read-out and setting: then B1, with 236 pM.
On to B14, for which the EC50 was determined as 18000 pM.
As to B15, the EC50 stood at 294 pM.
The same measure, in the same setting: then B2, with 124 pM.
The same measure, in the same setting: the value for B16 was 222 pM; that for B17 was 14300 pM.
B3: the EC50 was determined as 310 pM.
As to B4, the EC50 worked out at 142 pM.
The same measure, in the same setting: the value for B18 was 130 pM; that for B19 was 626 pM; that for B5 was 147 pM.
Consider B6, for which the EC50 worked out at 190 pM.
Still for that read-out and setting: then B20, with 1280 pM; and B21, with 36100 pM.
Same read-out and setting: the value for B22 was 1630 pM.
